Data published in publication PMC8652540.

Biological target: SARS-CoV-2 nucleocapsid protein (NCAP, N protein) (SARS-CoV-2, UniProt P0DTC9 1-419)
Test: EMSA
Conditions: protein: recombinant; tags: N-terminal GFP and His (N-GFP-NCAP-His, pET-28a(+)-TEV) as purified; EMSA text says only recombinant NCAP; chain copies: 2; single strand (legend says 24 bp)

## UGCUUACGGUUUCGUCCGUGUUGC (ssRNA) [5'UTR leader RNA probe]
  binding result: binds
